Measurements taken from the Immune Epitope Database (IEDB).

How the values were obtained:
HLA-B*40:01 [1] = test: IEDB peptide-MHC binding, purified MHC/competitive/fluorescence; filed as Kd, often an IC50 or EC50 that approximates it; ≥ and ≤ were set here for values at or beyond the usual limits of such assays; conditions: source organism: Vaccinia virus L-IPV
HLA-B*48:01 = test: as above; conditions: source organism: Vaccinia virus L-IPV
HLA-B*35:01 = test: as above; conditions: source organism: Vaccinia virus L-IPV
HLA-B*18:01 = test: IEDB peptide-MHC binding, purified MHC/direct/fluorescence; filed as Kd, often an IC50 or EC50 that approximates it; ≥ and ≤ were set here for values at or beyond the usual limits of such assays; conditions: source organism: Camelpox virus M-96
HLA-A*02:01 [2] = test: as above
HLA-B*15:01 = test: as above
HLA-B*57:01 = test: as above; conditions: source organism: Camelpox virus M-96
HLA-B*58:01 = test: as above
HLA-B*27:05 = test: as above
HLA-A*01:01 = test: as above
HLA-B*07:02 = test: as above
HLA-B*39:01 = test: as above; conditions: source organism: Camelpox virus M-96
HLA-B*15:17 = test: as above; conditions: source organism: Camelpox virus M-96
HLA-A*68:02 = test: as above; conditions: source organism: Camelpox virus M-96
HLA-A*69:01 = test: as above; conditions: source organism: Camelpox virus M-96
HLA-A*02:01 [3] = test: IEDB peptide-MHC binding, purified MHC/competitive/fluorescence; filed as Kd, often an IC50 or EC50 that approximates it; ≥ and ≤ were set here for values at or beyond the usual limits of such assays; conditions: source organism: Vaccinia virus WR
HLA-C*06:02 = test: IEDB peptide-MHC binding, purified MHC/direct/fluorescence; filed as Kd, often an IC50 or EC50 that approximates it; ≥ and ≤ were set here for values at or beyond the usual limits of such assays; conditions: source organism: Vaccinia virus WR
HLA-C*15:02 = test: as above; conditions: source organism: Vaccinia virus WR
HLA-C*04:01 = test: as above; conditions: source organism: Vaccinia virus WR
HLA-C*12:03 = test: as above; conditions: source organism: Vaccinia virus WR
HLA-C*08:02 = test: as above; conditions: source organism: Vaccinia virus WR
HLA-A*11:01 = test: as above; conditions: source organism: Influenza A virus (A/Viet Nam/HN/2004(H5N1))
HLA-B*46:01 = test: as above; conditions: source organism: Influenza A virus (A/Viet Nam/HN/2004(H5N1))
HLA-B*40:01 [4] = test: as above
HLA-A*31:01 = test: as above; conditions: source organism: Influenza A virus (A/Viet Nam/HN/2004(H5N1))
HLA-B*08:01 = test: as above
HLA-A*03:01 = test: as above
HLA-B*44:02 = test: as above
HLA-A*24:02 = test: as above
[5] = source organism: Camelpox virus M-96
[6] = source organism: Influenza A virus (A/Viet Nam/HN/2004(H5N1))
[7] = source organism: Giardia lamblia ATCC 50803

Question: SHEQGDIAL was tested. Which Kd (HLA-B*40:01 [1]) did it give?
Answer: ≥ 20 µM

Question: What about the Kd (HLA-B*48:01) of the same sequence?
Answer: ≥ 20 µM

Question: What about the Kd (HLA-B*35:01) of the same sequence?
Answer: 2.3 µM

Question: And the Kd (HLA-B*18:01)?
Answer: ≥ 20 µM

Question: What about the Kd (HLA-A*02:01 [2]; [5]) of the same sequence?
Answer: ≥ 20 µM

Question: What about the Kd (HLA-B*15:01; [5]) of the same sequence?
Answer: ≥ 20 µM

Question: What about the Kd (HLA-B*57:01) of the same sequence?
Answer: ≥ 20 µM

Question: What about the Kd (HLA-B*58:01; [5]) of the same sequence?
Answer: ≥ 20 µM

Question: What about the Kd (HLA-B*27:05; [5]) of the same sequence?
Answer: ≥ 20 µM

Question: What about the Kd (HLA-A*01:01; [5]) of the same sequence?
Answer: ≥ 20 µM

Question: What about the Kd (HLA-B*07:02; [5]) of the same sequence?
Answer: ≥ 20 µM

Question: And the Kd (HLA-B*39:01)?
Answer: 0.0925 µM

Question: What about the Kd (HLA-B*15:17) of the same sequence?
Answer: ≥ 20 µM

Question: What about the Kd (HLA-A*68:02) of the same sequence?
Answer: ≥ 20 µM

Question: And the Kd (HLA-A*69:01)?
Answer: ≥ 20 µM

Question: Which results are given for FTSSFYNYV?
Answer: Kd (HLA-A*02:01 [3]): 0.0046 µM; Kd (HLA-C*06:02): 0.089 µM; Kd (HLA-C*15:02): 0.019 µM; Kd (HLA-C*04:01): ≥ 20 µM; Kd (HLA-C*12:03): ≤ 0.001 µM; Kd (HLA-C*08:02): 0.818 µM

Question: RNEQGQTLW was tested. Which Kd (HLA-A*11:01) did it give?
Answer: ≥ 20 µM

Question: And the Kd (HLA-B*46:01)?
Answer: ≥ 20 µM

Question: What about the Kd (HLA-A*02:01 [2]; [6]) of the same sequence?
Answer: ≥ 20 µM

Question: And the Kd (HLA-B*40:01 [4]; [6])?
Answer: ≥ 20 µM

Question: And the Kd (HLA-A*31:01)?
Answer: ≥ 20 µM

Question: And the Kd (HLA-B*15:01; [6])?
Answer: ≥ 20 µM

Question: What about the Kd (HLA-B*08:01; [6]) of the same sequence?
Answer: ≥ 20 µM

Question: And the Kd (HLA-B*58:01; [6])?
Answer: 0.0718 µM

Question: What about the Kd (HLA-B*27:05; [6]) of the same sequence?
Answer: ≥ 20 µM

Question: What about the Kd (HLA-A*01:01; [6]) of the same sequence?
Answer: ≥ 20 µM

Question: What about the Kd (HLA-B*07:02; [6]) of the same sequence?
Answer: ≥ 20 µM

Question: And the Kd (HLA-A*03:01; [6])?
Answer: ≥ 20 µM

Question: What about the Kd (HLA-B*44:02; [6]) of the same sequence?
Answer: ≥ 20 µM

Question: And the Kd (HLA-A*24:02; [6])?
Answer: ≥ 20 µM

Question: Which results are given for ETKKRMDYF?
Answer: Kd (HLA-A*02:01 [2]; [7]): ≥ 20 µM; Kd (HLA-B*40:01 [4]; [7]): ≥ 20 µM; Kd (HLA-B*15:01; [7]): ≥ 20 µM; Kd (HLA-B*08:01; [7]): 1.56 µM; Kd (HLA-B*58:01; [7]): ≥ 20 µM; Kd (HLA-B*27:05; [7]): ≥ 20 µM; Kd (HLA-A*01:01; [7]): ≥ 20 µM; Kd (HLA-B*07:02; [7]): ≥ 20 µM; Kd (HLA-A*03:01; [7]): ≥ 20 µM; Kd (HLA-B*44:02; [7]): ≥ 20 µM; Kd (HLA-A*24:02; [7]): ≥ 20 µM
